Positions count from the first letter of the chain named.
B1: SEQ ID NO 2 (protein)
chain: MGPTPTATAAGAAVAAASAAEQAAFRLVGHRNFVRFNPRSDRFQTLAFHHVELWCADAASAAGRFSFALGVPLAARSDLSTGNSAHASLLLRSGSLSLLFTAPYAHGADAATAALPSFSAAAARRFAADHGLAVRAVALRVADAEDAFRASVAAGARPAFGPVDLGRGFRLAEVELYGDVVLRYVSYPDGAAGEPFLPGFEGVASPGAADYGLSRFDHIVGNVPELAPAAAYMAGFTGFHEFAEFTTEDVGTTESGLNSMALANNSENVLLPLNEPVHGTKRRSQIQTFLDHHGGPGVQHIALASDDVLRTLREMRARSAMGGFEFLPPPLSDYYDGVRRCAGDVLTEAQINECQELGVMVDRDDQGVLLQIFTKPVGDRPTFFLEIIQRIGCMEKDEKGQEYQKGGCGGFGKGNFGQLFKSIEDYEKSLEAKQAAAAATAQGS
modifications: Zea mays variant form created by artificial means.
B2: SEQ ID NO 1 (protein)
chain: MGPTPTAAAAGAAVAAASAAEQAAFRLVGHRNFVRFNPRSDRFHTLAFHHVELWCADAASAAGRFSFGLGAPLAARSDLSTGNSAHASLLLRSGSLSFLFTAPYAHGADAATAALPSFSAAAARRFAADHGLAVRAVALRVADAEDAFRASVAAGARPAFGPVDLGRGFRLAEVELYGDVVLRYVSYPDGAAGEPFLPGFEGVASPGAADYGLSRFDHIVGNVPELAPAAAYFAGFTGFHEFAEFTTEDVGTAESGLNSMVLANNSENVLLPLNEPVHGTKRRSQIQTFLDHHGGPGVQHMALASDDVLRTLREMQARSAMGGFEFMAPPTSDYYDGVRRRAGDVLTEAQIKECQELGVLVDRDDQGVLLQIFTKPVGDRPTLFLEIIQRIGCMEKDEKGQEYQKGGCGGFGKGNFSQLFKSIEDYEKSLEAKQAAAAAAAQGS
modifications: Zea mays
B3: P056028-F-09 (protein)
chain: B1 chain with P206Q, Q366E, I387L
modifications: Zea mays variant form created by artificial means.
B4: P056028-G-02 (protein)
chain: B1 chain with M233V, Q366E
modifications: Zea mays variant form created by artificial means.
B5: P056028-G-09 (protein)
chain: B1 chain with P158K, Q366E, M394V
modifications: Zea mays variant form created by artificial means.
B6: P056028-G-07 (protein)
chain: B1 chain with P206Q, R340K, E356R, Q366E
modifications: Zea mays variant form created by artificial means.
B7: P056028-G-08 (protein)
chain: B1 chain with Y211L, R340K, E356K, Q366E
modifications: Zea mays variant form created by artificial means.
B8: P056028-G-04 (protein)
chain: B1 chain with Y211L, Q366E, L385I, I387L
modifications: Zea mays variant form created by artificial means.
B9: P056028-G-10 (protein)
chain: B1 chain with P158K, L327P, Q366E, G417Q
modifications: Zea mays variant form created by artificial means.
B10: P056028-G-05 (protein)
chain: B1 chain with A191G, P206Q, Y211L, S214N, R340K, Q366E, L385I, G417Q, Q434R
modifications: Zea mays variant form created by artificial means.
B11: P056028-G-06 (protein)
chain: B1 chain with L182M, P206Q, S214N, R340K, Q366E, I387L
modifications: Zea mays variant form created by artificial means.

Tested on: 4-hydroxyphenylpyruvate dioxygenase (HPPD)
Test: Estimate of kcat from initial rate at saturating hydroxyphenylpyruvate without inhibitor (ON rate ratio assay)
Assay type: biochemical, Z. mays
Conditions: Megatable 2; single substitutions, positions numbered per SEQ ID NO:1
Method in brief: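 kcat was estimated from the initial reaction rate with known enzyme level (60 or 120 nM HPPD). Hydroxyphenylpyruvate was at a saturating 100 μM, with no inhibitor present.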

Molecule	kcat [s⁻¹]
B1	0.57
B2	3.5

Same assay, conditions: Megatable 3; shuffled variants

Molecule	kcat [s⁻¹]
B3	0.285
B4	0.383
B5	0.263
B6	0.255
B7	0.197
B8	0.227
B9	0.488
B10	0.278
B11	0.2

Same assay, conditions: Table 7; combinatorial variants

Molecule	kcat [s⁻¹]
B3	0.285
B4	0.383
B5	0.263
B6	0.255
B7	0.197
B8	0.227
B9	0.488
B10	0.278
B11	0.2

Tested on: 4-hydroxyphenylpyruvate dioxygenase (HPPD)
Test: OFF rate ratio: release of inhibitor from pre-formed enzyme-inhibitor complex
Assay type: biochemical, Z. mays
Conditions: Megatable 2
Method in brief: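 Inhibitor release from pre-formed complex (enzyme 7.2 μM, inhibitor 8 μM, 1 h RT) tracked as accelerating HPPD activity at 320 nm over 12 min, coupled via 50 nM HGD with 100 μM HPP at pH 7. OFF rate ratio: steady-state velocity relative to uninhibited initial velocity.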

Molecule	OFF Rat. (OFF ratio parameter)
B1	0.21
B2	0.03

Same assay, conditions: Table 7; tembotrione; combinatorial variants

Molecule	OFF rate ratio
B3	0.360
B4	0.304
B5	0.385
B6	0.304
B7	0.379
B8	0.248
B9	0.259
B10	0.361
B11	0.382

Tested on: 4-hydroxyphenylpyruvate dioxygenase (HPPD)
Test: ON rate ratio: HPPD reaction rate with vs without inhibitor in the 70 to 90 second interval
Assay type: biochemical, Z. mays
Conditions: Megatable 2
Method in brief: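 Indicator of inhibitor on-rate: reaction velocity in the 70 to 90 second window with 4 μM inhibitor divided by that without. Reactions contained 100 μM HPP and 60 or 120 nM HPPD; slower binding gives a larger ratio.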

Molecule	ON Rat. (ON ratio parameter)
B1	0.74
B2	0.17

Same assay, conditions: Table 7; tembotrione; combinatorial variants

Molecule	ON rate ratio
B3	0.700
B4	0.761
B5	0.716
B6	0.702
B7	0.737
B8	0.752
B9	0.607
B10	0.739
B11	0.725

Tested on: 4-hydroxyphenylpyruvate dioxygenase (HPPD)
Test: Insensitivity parameter (ON × OFF) and trait fitness (ON × OFF × kcat/KM or × kcat)
Assay type: biochemical, Z. mays
Parameters: key to ON × OFF / Insensitivity, mesotrione, ON × OFF / Insensitivity, tembotrione, ON × OFF / Insensitivity, topramezone, ON × OFF / Insensitivity, sulcotrione, ON × OFF / Insensitivity, isoxaflutole (DKN), ON × OFF: insensitivity = ON rate ratio × OFF rate ratio (surrogate for KD)
Conditions: Megatable 2
Method in brief: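 Trait fitness combines catalysis and insensitivity as kcat/KM × ON rate ratio × OFF rate ratio. The insensitivity parameter is the product of ON and OFF rate ratios, used in place of KD because the ON rate ratio is inverse.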

Molecule	ON × OFF (product of ON ratio and OFF ratio)	ON × OFF kcat (product of ON ratio, OFF ratio and kcat)
B1	0.15	5.25
B2	0.0051	1.07

Same assay, conditions: Megatable 2; fold of ON × OFF

Molecule	Fold vs. wt (ON × OFF versus wild-type SEQ ID NO:1)
B1	30.0
B2	1.00

Same assay, conditions: Megatable 2; fold of ON × OFF × kcat

Molecule	Fold vs. wt (ON × OFF × kcat versus wild-type SEQ ID NO:1)
B1	4.90
B2	1.00

Same assay, conditions: Megatable 3; shuffled variants

Molecule	ON × OFF	ON × OFF × kcat
B3	0.252	4.30
B4	0.231	5.30
B5	0.275	4.37
B6	0.213	3.23
B7	0.279	3.29
B8	0.186	2.54
B9	0.157	4.61
B10	0.267	4.47
B11	0.277	3.30

Same assay, conditions: Table 7; tembotrione; combinatorial variants

Molecule	ON × OFF	ON × OFF × kcat
B3	0.252	4.30
B4	0.231	5.30
B5	0.275	4.37
B6	0.213	3.23
B7	0.279	3.29
B8	0.186	2.54
B9	0.157	4.61
B10	0.267	4.47
B11	0.277	3.30

Source: patent publication US11015206B2, “Compositions and methods comprising sequences having hydroxyphenylpyruvate dioxygenase (HPPD) activity” (PIONEER HI-BRED INTERNATIONAL, INC., priority 2014, dated 2021)
